Test [1] concerns the target T1, GP5-7 (human, biotin at the N-terminus).
T1 construct: GP5 with alanine at position 7 (V7A), already in the entry
T1 peptide: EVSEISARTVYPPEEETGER
The test can be described thus: ELISA, biotin-peptide on streptavidin plate, Fab 1 ug/ml. Background: In an ELISA, binding on a coated surface is turned into a signal by an enzyme label.

Test [2] concerns the target T2, GP5-8 (human, biotin at the N-terminus).
T2 construct: GP5 with alanine at position 8 (R8A), already in the entry
T2 peptide: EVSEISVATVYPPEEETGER
Described as above.

The target of test [3] is T3, GP5-9 (human, biotin at the N-terminus).
T3 construct: GP5 with alanine at position 9 (T9A), already in the entry
T3 peptide: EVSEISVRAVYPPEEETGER
The test is described as above.

In test [4] the target is T4, GP5-10 (human, biotin at the N-terminus).
T4 construct: GP5 with alanine at position 10 (V10A), already in the entry
T4 peptide: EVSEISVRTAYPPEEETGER
The description is as above.

Test [5] has as its target T5, GP5-11 (human, biotin at the N-terminus).
T5 construct: GP5 with alanine at position 11 (Y11A), already in the entry
T5 peptide: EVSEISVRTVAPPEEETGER
The description is as above.

For test [6], the target named is T6, GP5-12 (human, biotin at the N-terminus).
T6 construct: GP5 with alanine at position 12 (P12A), already in the entry
T6 peptide: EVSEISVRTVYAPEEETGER
The test is described as above.

The target of test [7] is T7, GP5-13 (human, biotin at the N-terminus).
T7 construct: GP5 with alanine at position 13 (P13A), already in the entry
T7 peptide: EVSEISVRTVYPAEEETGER
Described as above.

For test [8], the target named is T8, GP5-14 (human, biotin at the N-terminus).
T8 construct: GP5 with alanine at position 14 (E14A), already in the entry
T8 peptide: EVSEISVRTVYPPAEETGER
Described as above.

Test [9] deals with T9, GP5-15 (human, biotin at the N-terminus).
T9 construct: GP5 with alanine at position 15 (E15A), already in the entry
T9 peptide: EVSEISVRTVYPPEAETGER
The test is described as above.

Test [10] addresses T10, GP5-16 (human, biotin at the N-terminus).
T10 construct: GP5 with alanine at position 16 (E16A), already in the entry
T10 peptide: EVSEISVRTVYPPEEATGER
The description is as above.

Test [11] deals with T11, GP5-17 (human, biotin at the N-terminus).
T11 construct: GP5 with alanine at position 17 (T17A), already in the entry
T11 peptide: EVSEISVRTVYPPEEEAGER
Described as above.

In test [12] the target is T12, GP5-18 (human, biotin at the N-terminus).
T12 construct: GP5 with alanine at position 18 (G18A), already in the entry
T12 peptide: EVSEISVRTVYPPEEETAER
Described as above.

For test [13], the target named is T13, GP5-19 (human, biotin at the N-terminus).
T13 construct: GP5 with alanine at position 19 (E19A), already in the entry
T13 peptide: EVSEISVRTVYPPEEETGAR
The test is described as above.

Test [14] addresses T14, GP5-20 (human, biotin at the N-terminus).
T14 construct: GP5 with alanine at position 20 (R20A), already in the entry
T14 peptide: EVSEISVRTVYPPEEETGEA
Described as above.

In test [15] the target is T15, GP5-1 (human, biotin at the N-terminus).
T15 construct: GP5 with alanine at position 1 (E1A), already in the entry
T15 peptide: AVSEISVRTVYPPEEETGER
Described as above.

The target of test [16] is T16, GP5-2 (human, biotin at the N-terminus).
T16 construct: GP5 with alanine at position 2 (V2A), already in the entry
T16 peptide: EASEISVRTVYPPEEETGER
Described as above.

Test [17] deals with T17, GP5-3 (human, biotin at the N-terminus).
T17 construct: GP5 with alanine at position 3 (S3A), already in the entry
T17 peptide: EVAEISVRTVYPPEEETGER
The description is as above.

The target in test [18] is T18, GP5-4 (human, biotin at the N-terminus).
T18 construct: GP5 with alanine at position 4 (E4A), already in the entry
T18 peptide: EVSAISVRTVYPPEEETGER
Described as above.

Test [19] concerns the target T19, GP5-5 (human, biotin at the N-terminus).
T19 construct: GP5 with alanine at position 5 (I5A), already in the entry
T19 peptide: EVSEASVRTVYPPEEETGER
The description is as above.

Test [20] addresses T20, GP5-6 (human, biotin at the N-terminus).
T20 construct: GP5 with alanine at position 6 (S6A), already in the entry
T20 peptide: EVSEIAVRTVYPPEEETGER
The description is as above.

Test [21] deals with T21, recombinant human GPA ectodomain (human, UniProt P02724 20-91).
T21 construct: also called recombinant hGPA ECD; recGPA
T21 sequence: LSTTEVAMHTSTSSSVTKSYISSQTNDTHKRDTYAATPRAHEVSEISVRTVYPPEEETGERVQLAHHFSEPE
Put plainly: SPR, IgG.

Test [22] has as its target T22, purified human glycophorin A protein (Sigma, cat # G5017) (human, UniProt P02724 20-150).
T22 construct: mature; also called Sigma hGPA; Sigma GPA
T22 sequence (looked up): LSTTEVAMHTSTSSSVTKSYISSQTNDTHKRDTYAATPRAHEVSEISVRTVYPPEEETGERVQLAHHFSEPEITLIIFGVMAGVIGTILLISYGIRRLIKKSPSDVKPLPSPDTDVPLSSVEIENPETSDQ
The test can be described thus: ELISA, IgG.

For test [23], the target named is T22, purified human glycophorin A protein …. The test can be described thus: ELISA, hGPA.
Test [24] deals with T23, human glycophorin A in the red blood cell membrane (human, UniProt P02724 20-150).
T23 construct: whole, on cells; used for intact RBC, isolated RBC membranes and transfected cells; the assay field tells which; also called GPA; hGPA
T23 sequence (looked up): T22 sequence (looked up)
Put plainly: FACS, hu RBC.
Description: (§1) Hybridomas were generated from the spleen cells of these mice and these hybriomas were screened first by fluorescence activated cell sorting (FACS) against isolated human and monkey (Cynomolgus monkey and Rhesus monkey) red blood cells (RBC) and then by ELISA against purified human glycophorin A protein (GPA). Isolated RBC were prepared from whole blood from normal human, cynomolgus monkey, and beagle dog, were anticoagulant with sodium heparin (Bioreclamation). 2-3 mL of whole blood was loaded gently on the top of 3 mL Ficoll Plus (Sigma Aldrich) then centrifuged at 500 g for 20 min at room temperature (RT). The RBC pellets were washed 3 times with 10 mL of PBS, and centrifuge 400 g for 10 min at RT. RBC pellets were re-suspended in PBS at the same total volume as the original blood volume to achieve the same RBC cell density as in whole blood and stored at 4° C. Purified human glycophorin A protein was obtained from Sigma Aldrich and coated on ELISA plates at 2 ug/ml. Binding of antibodies to human GPA was detected using appropriate secondary antibodies using methods well known in the art.

The target of test [25] is T24, dog red blood cells (dog).
T24 construct: also called dog RBC
The test can be described thus: FACS, dog RBC. A general note: A flow cytometer gives signals particle by particle.
Description: as §1

Test [26] concerns the target T25, Cynomolgus monkey glycophorin A on Cynomolgus monkey red blood cells (Cynomolgus monkey).
T25 construct: whole, on cells; also called Cyno RBC; Cyno GPA
The test can be described thus: FACS, Cyno RBC.

The target of test [27] is T25, Cynomolgus monkey glycophorin A on …. The test can be described thus: FACS, RBC Cy01.
Description: (§2) The binding of the humanized variants to intact red blood cells (RBC) from humans (Hu01 to 03; 3 individuals), Rhesus monkey (Rh01 to 03; 3 individuals) and Cynomolgus monkey (Cy01 to 02; 2 individuals) was measured by fluorescence activated cell sorting (FACS).
Test [28] shares this target. Put plainly: FACS, RBC Cy02.
Description: as §2
Test [29] concerns the target T23, human glycophorin A in the red blood …. The test can be described thus: FACS, RBC Hu01.
Description: as §2
The target is the same in test [30]. The test can be described thus: FACS, RBC Hu02.
Description: as §2
Test [31] shares this target. Put plainly: FACS, RBC Hu03.
Description: as §2
Test [32] addresses T26, Rhesus monkey glycophorin A on Rhesus monkey red blood cells (Rhesus monkey, UniProt A0A1D5Q349 20-150).
T26 construct: whole, on cells; also called Rhesus RBC; monkey GPA
T26 sequence: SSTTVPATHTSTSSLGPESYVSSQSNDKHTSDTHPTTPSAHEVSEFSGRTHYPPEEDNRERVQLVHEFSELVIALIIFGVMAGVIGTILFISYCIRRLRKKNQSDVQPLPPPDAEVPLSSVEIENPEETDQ
The test can be described thus: FACS, RBC Rh01.
Description: as §2

Test [33] addresses T26, Rhesus monkey glycophorin A on Rhesus …. The test can be described thus: FACS, RBC Rh02.
For test [34] the target is unchanged. The test can be described thus: FACS, RBC Rh03.
Description: as §2
Test [35] has as its target T22, purified human glycophorin A protein …. Put plainly: ELISA, purified IgG.
Description: (§3) The “Sigma GPA” is a crude preparation of human GPA extracted from human red blood cells and is therefore representative of the highly glycosylated form of the native protein.
(§4) EC 50 values were determined from a dilution curve of the antibody. Sigma GPA is partially purified GPA extracted from human red blood cells and purchased from Sigma Chemical Company (cat # G5017), asialo hGPA is human GPA that was desialylated and ECD is the recombinantly expressed ectodomain which is the extracellular portion of GPA.
Test [36] deals with T27, asialo hGPA (desialylated human GPA) (human, UniProt P02724 20-150, desialylated).
T27 construct: mature; also called asialo-GPA
T27 sequence (looked up): T22 sequence (looked up)
Put plainly: ELISA, purified IgG.
Description: as §3, §4

The target of test [37] is T21, recombinant human GPA ectodomain. The test can be described thus: ELISA, purified IgG.
Description: as §3, §4
Test [38] concerns the target T28, GP5 peptide (human, N-terminal biotin).
T28 construct: residues 42 to 61 of the human glycophorin A extracellular domain
T28 peptide: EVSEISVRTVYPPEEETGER
Put plainly: peptides bound to plates (data not shown).

The target in test [39] is T23, human glycophorin A in the red blood …. The test can be described thus: FACS, IgG titrated on human GPA expressing CHO-QMCF1 cells (17d post txn).

B1: TPP-5906 Fab (Fab, V domains shown)
VH: EVQLVQSGAEVKKPGASVKVSCKASGYTFTTYTIHWVRQAPGQGLEWMGYINPSSGYTRYNPKFKGRVTMTRDKSTSTAYMELRSLRSDDTAVYYCQTGTRDYWGQGTTVTVSS
VL: DIQLTQSPSFLSASVGDRVTITCRASSSVSYIYWFQQKPGKAPKLLIYATSTLQSGVPSRFSGSGSGTEYTLTISSLQPEDFATYYCHQRNSFPYTFGQGTKLEIKR
notes: also called parental humanized and germlined 6C12 Fab
As to B1, the “binding signal (ELISA)” value was 7180 in test [1]; 7360 in [2]; 7280 in test [3]; 337 in test [4]; -1 in test [5]; 282 in test [6]. Also, the “binding signal (ELISA)” value in [7] was determined as 2000; in test [8], 9; in [9] it was 366; in test [10] it was 3390; in test [11], 6250; in test [12], 6290. Further, the “binding signal (ELISA)” value in test [13] worked out at 4580; in test [14], 6850; in [15], 5310; in test [16], 6170; in [17] it was 6160; in test [18], 4840. For the same molecule, the “binding signal (ELISA)” value in [19] came out at 6780; in test [20], 6370.

B2: 6C12B8/H8 (antibody, V domains shown)
VH: RVQLQQSGAELARPGASVKMSCKASGYTFTTYTIHWVKQKTGQGLEWIGYINPSSDYTRYNPKFKDKATLTTDKSSSTAYMKLNSLASDDSAVYYCQTGTRDYWGQGTTLTVSS
VL: QIVLTQSPPIMSASPGEKVTMTCSAASSVSYIYWFQQKPGTSPKLWIYSTSTLPSGVPTRFSGSGSGTSYSLTISRMEAEDAATYYCHQRNSFPFTFGSGTKLEIR
notes: mouse IgG1/k from hybridoma; also called 6C12 parental; TPP-3422
On to B2, for which the Kd (usually a measure of binding affinity in units of concentration) in [21] came out at 2.98 nM. Also, the koff (as a rule, the first-order rate constant of dissociation) in test [21] was 0.00212 s⁻¹. In [21], the kon (usually the rate constant with which the complex forms) worked out at 711000 M⁻¹ s⁻¹. The t½ (usually the time needed for the level to fall by half in the phase considered) in test [21] was 5.4 min. The EC50 (as a rule, the concentration giving half of the maximal effect) in [22] came to 0.326 nM; in test [23] it was 0.791 nM; in test [35] it was 0.64 nM; in test [36], 0.69 nM; in test [37], 0.59 nM. Besides, the FACS signal was 3100 relative flourescence units in test [24], 1.18 relative flourescence units in test [25] and 292 relative flourescence units in test [26]. In addition, the fluorescence intensity in test [27] was 2570; in [28], 2570; in [29], 3520; in test [30], 2540; in test [31], 2680; in [32], 3780. The fluorescence intensity was determined as 3410 in [33] and 3180 in test [34]. Further, in test [38], the binding result was “binds”. Moreover, the EC50 (read off the curve) (in general, the concentration that produces a half-maximal response) in [39] is approximately 0.06 µg/mL.
